The target of assay [1] is T1, v31805, MH6T-TriTAC benchmark construct [MSLN (VHH) x Alb (VHH) x CD3 (scFv)]. Description: SPR, BioRad ProteOn XPR36, 25 C, CD3 epsilon/delta-Fc captured on anti-Fc chip. (SPR reads the build-up and loss of mass on a sensor chip optically.)
Assay [2] concerns the target T1, v31805, MH6T-TriTAC benchmark construct …. Kind of assay: SPR, BioRad ProteOn XPR36, 25 C, CD3 epsilon/delta-Fc captured on anti-Fc chip; value as printed, implausible for ka.
Assay [3] deals with T2, mesothelin (MSLN) on MSLN-expressing tumor cells (human, UniProt Q13421 296-598).
Assay [4] deals with T2, mesothelin (MSLN) on MSLN-expressing …. Kind of assay: cell-based or functional assay.
For assay [5] the target is unchanged. This is another data set of the same source.
The target of assay [6] is T3, CD3 on CD3+ Jurkat cells and primary human T cells (human, UniProt P07766 23-207).
T3 construct: whole, on cells; also called native CD3; CD3ε
Description: whole-cell ELISA on CD3+ Jurkat cells, apparent affinity. (In general: An ELISA detects its analyte on a solid surface through an enzyme-linked reagent.)

The target of assay [7] is T2, mesothelin (MSLN) on MSLN-expressing …. The source holds these as a separate data set.
Assay [8] concerns the target T3, CD3 on CD3+ Jurkat cells and primary …. Kind of assay: flow cytometry on primary human CD8+ T cells (anti-IgG-Fc detection, geo MFI). A general note: Flow cytometry measures light scatter and fluorescence of single cells or particles in a stream.
Target sequence in this assay (P07766 23-207): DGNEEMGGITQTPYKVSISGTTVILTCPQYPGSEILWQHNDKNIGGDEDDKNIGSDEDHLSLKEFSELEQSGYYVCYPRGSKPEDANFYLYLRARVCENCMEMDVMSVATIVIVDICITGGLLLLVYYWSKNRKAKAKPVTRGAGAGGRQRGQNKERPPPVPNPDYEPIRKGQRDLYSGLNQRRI
Assay [9] has the same target. Description: flow cytometry on primary human T cells, apparent affinity.
Assay [10] shares this target. Kind of assay: flow cytometry on primary human CD4+ T cells (anti-IgG-Fc detection, geo MFI).
Target sequence in this assay (P07766 23-207): as above
In assay [11] the target is T2, mesothelin (MSLN) on MSLN-expressing …. Kind of assay: whole-cell flow cytometry on OVCAR-3 cells, apparent affinity.
For assay [12] the target is unchanged. Description: flow cytometry on MSLN+ OVCAR-3 cells (Alexa Fluor 647 anti-IgG-Fc, MFI).
The target in assay [13] is T3, CD3 on CD3+ Jurkat cells and primary …. Kind of assay: cell ELISA on whole CD3+ Jurkat cells (HRP anti-human IgG Fc, A 450nm).
Target sequence in this assay (P07766 23-207): as above
Assay [14] addresses T2, mesothelin (MSLN) on MSLN-expressing …. Description: cell-based or functional assay. The source holds these as a separate data set.
The target of assay [15] is T3, CD3 on CD3+ Jurkat cells and primary …. Description: cell ELISA on whole CD3+ Jurkat cells (HRP anti-human IgG Fc, A 450nm). The source holds these as a separate data set.
The target of assay [16] is T4, MSLN (form in the assay not stated) (UniProt Q13421 296-580). Kind of assay: method not stated; reference v31805.
For assay [17], the target named is T2, mesothelin (MSLN) on MSLN-expressing …. This is another data set of the same source.
Assay [18] deals with T4, MSLN (form in the assay not stated). Kind of assay: method and antigen form not stated in Table 12.
For assay [19] the target is unchanged. Kind of assay: method not stated; reference v29191.
Assay [20] addresses T3, CD3 on CD3+ Jurkat cells and primary …. Kind of assay: whole-cell ELISA on CD3+ Jurkat cells, apparent affinity; Jurkat cells.
Target sequence in this assay (P07766 23-207): as above
Assay [21] shares this target. Kind of assay: whole-cell ELISA on CD3+ Jurkat cells, apparent affinity; main value of the cell, outside the parentheses.
Target sequence in this assay (P07766 23-207): as above

Where a chain is given by its changes, count along the chain named. Where two headings read alike, the source gives them in different places.

This note sets out measurements from patent publication US20240327516A1 (Zymeworks, published 2024).

T4 sequence (Q13421 other isoform, or with tags, fused parts or gaps limits assumed): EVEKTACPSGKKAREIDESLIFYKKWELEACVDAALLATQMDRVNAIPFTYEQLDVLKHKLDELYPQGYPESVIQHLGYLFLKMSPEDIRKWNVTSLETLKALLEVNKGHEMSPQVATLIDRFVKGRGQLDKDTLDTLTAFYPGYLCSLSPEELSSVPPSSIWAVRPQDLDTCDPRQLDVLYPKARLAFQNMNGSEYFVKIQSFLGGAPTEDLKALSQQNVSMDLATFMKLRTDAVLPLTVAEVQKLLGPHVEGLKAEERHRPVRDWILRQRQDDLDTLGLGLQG
T2 sequence (Q13421 other isoform, or with tags, fused parts or gaps limits assumed): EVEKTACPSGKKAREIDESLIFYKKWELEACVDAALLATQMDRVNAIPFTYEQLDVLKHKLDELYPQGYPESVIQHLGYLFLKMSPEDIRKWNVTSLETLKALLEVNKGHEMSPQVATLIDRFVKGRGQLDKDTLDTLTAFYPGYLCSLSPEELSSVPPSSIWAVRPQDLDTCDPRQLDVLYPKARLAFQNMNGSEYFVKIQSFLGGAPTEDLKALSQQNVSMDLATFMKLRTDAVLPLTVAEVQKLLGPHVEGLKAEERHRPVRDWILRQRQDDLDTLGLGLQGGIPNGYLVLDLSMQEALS

B1: Recombinant CD3epsilon/delta Fc fusion protein (Sino Biological) (Fc fusion)
chain 1: DGNEEMGGITQTPYKVSISGTTVILTCPQYPGSEILWQHNDKNIGGDEDDKNIGSDEDHLSLKEFSELEQSGYYVCYPRGSKPEDANFYLYLRARVCENCMEMD
chain 2: FKIPIEELEDRVFVNCNTSITWVEGTVGTLLSDITRLDLGKRILDPRGIYRCNGTDIYKDKESTVQVHYRMCQSCVELDPATVA
notes: also called recombinant CD3 fusion protein
A word on the Kd: it is a measure of binding affinity in units of concentration. Higher therefore signals lower affinity. For orientation: koff means the rate constant with which the complex falls apart. The kon is the rate constant with which the complex forms. Higher therefore signals faster complex formation. Consider B1, for which, in assay [1], the dissociation constant Kd was found to be 0.75 nM and the koff was determined as 0.00379 s⁻¹. This molecule showed a kon in [2] of 5.04e+06 M⁻¹ s⁻¹.

B2: v21815, bivalent and bispecific antibody construct [MSLN (1 Fab) x CD3 (1 scFv)] (bispecific antibody, human IgG1, kappa, L234A L235A)
heavy 1: not shown
heavy 2: QVQLVQSGAEVKKPGASVKVSCKASGYSFTGYTMNWVRQAPGQGLEWMGLITPYNGASSYNQKFRGKATMTVDTSTSTVYMELSSLRSEDTAVYYCARGGYDGRGFDYWGQGTLVTVSSASTKGPSVFPLAPSSKSTSGGTAALGCLVKDYFPEPVTVSWNSGALTSGVHTFPAVLQSSGLYSLSSVVTVPSSSLGTQTYICNVNHKPSNTKVDKKVEPKSCDKTHTCPPCPAPEAAGGPSVFLFPPKPKDTLMISRTPEVTCVVVSVSHEDPEVKFNWYVDGVEVHNAKTKPREEQYNSTYRVVSVLTVLHQDWLNGKEYKCKVSNKALPAPIEKTISKAKGQPREPQVYVLPPSRDELTKNQVSLLCLVKGFYPSDIAVEWESNGQPENNYLTWPPVLDSDGSFFLYSKLTVDKSRWQQGNVFSCSVMHEALHNHYTQKSLSLSPG
light: DIQMTQSPSSLSASVGDRVTITCSASSSVSYMHWYQQKSGKAPKLLIYDTSKLASGVPSRFSGSGSGTDFTLTISSLQPEDFATYYCQQWSGYPLTFGQGTKLEIKRTVAAPSVFIFPPSDEQLKSGTASVVCLLNNFYPREAKVQWKVDNALQSGNSQESVTEQDSKDSTYSLSSTLTLSKADYEKHKVYACEVTHQGLSSPVTKSFNRGEC
notes: also called 1x1 construct; 1+1 anti-CD3 scFv x anti-MSLN Fab construct
As usually defined, the EC50 (read off the curve) is the concentration needed to bring the measured effect to its halfway point. In general, EC50 refers to the concentration giving half of the maximal effect. For the molecule B2, the 50% effective concentration (EC50 (read off the curve)) in [3] is roughly 2 nM; in [8], roughly 2 nM; in [10], roughly 2 nM; in assay [12] it was roughly 7 nM; in [13] it was roughly 2 nM. The “maximum killing of BxPC3 cells” value in assay [4] was determined as 35%. The molecule further returned an equilibrium dissociation constant (Kd) in [5] of roughly 1.73 nM. Moreover, the half-maximal effective concentration (EC50) was determined as 2.4 nM in [6], 1.7 nM in [7], 0.2 nM in assay [9] and 6.7 nM in assay [11].

B3: v21812, trivalent and bispecific antibody construct [MSLN (2 scFv) x CD3 (1 Fab)] (bispecific antibody, human IgG1, lambda, L234A L235A)
heavy 1: QVQLVQSGAEVKKPGASVKVSCKASGYSFTGYTMNWVRQAPGQGLEWMGLITPYNGASSYNQKFRGKATMTVDTSTSTVYMELSSLRSEDTAVYYCARGGYDGRGFDYWGQGTLVTVSSGGGGSGGGGSGGGGSDIQMTQSPSSLSASVGDRVTITCSASSSVSYMHWYQQKSGKAPKLLIYDTSKLASGVPSRFSGSGSGTDFTLTISSLQPEDFATYYCQQWSGYPLTFGQGTKLEIKAAEPKSSDKTHTCPPCPAPEAAGGPSVFLFPPKPKDTLMISRTPEVTCVVVSVSHEDPEVKFNWYVDGVEVHNAKTKPREEQYNSTYRVVSVLTVLHQDWLNGKEYKCKVSNKALPAPIEKTISKAKGQPREPQVYVLPPSRDELTKNQVSLLCLVKGFYPSDIAVEWESNGQPENNYLTWPPVLDSDGSFFLYSKLTVDKSRWQQGNVFSCSVMHEALHNHYTQKSLSLSPG
heavy 2: not shown
light: NFMLTQPHSVSESPGKTVTISCKRNTGNIGSNYVNWYQQHEGSSPTTIIYRNDKRPDGVSDRFSGSIDRSSKSASLTISNLKTEDEADYFCQSYSSGFIFGGGTKLTVLGQPKAAPSVTLFPPSSEELQANKATLVCLISDFYPGAVTVAWKADSSPVKAGVETTTPSKQSNNKYAASSYLSLTPEQWKSHRSYSCQVTHEGSTVEKTVAPTECS
notes: also called parental construct of v32523; dual scFv trivalent variant
On to B3, for which the “maximum killing of BxPC3 cells” value in assay [4] was 75%. Further, in [14], the “IC50 of T cell-dependent cytotoxicity on OVCAR-3 cells (pan T cells, E:T 5:1, 72 h)” value came to 0.05 pM. The molecule further displayed a Kd in assay [5] of roughly 0.47 nM. The concentration giving a half-maximal response (EC50 (read off the curve)) was roughly 9 nM in [15] and roughly 0.5 nM in assay [17]. Also, in assay [16], the “fold lower affinity vs v31805” value is roughly 20 fold. In addition, the EC50 stood at 17.7 nM in assay [6], 0.4 nM in assay [7] and 58.8 nM in assay [9]. In addition, the “Affinity to MSln” value in assay [18] was determined as 0.9 nM. For the same molecule, the “fold lower binding affinity vs v29191” value in assay [19] is roughly 45 fold.

B4: v21791, trivalent and bispecific antibody construct [MSLN (2 Fab) x CD3 (1 Fab)] (bispecific antibody, human IgG1, kappa, lambda, L234A L235A)
heavy 1: not shown
heavy 2: B2 heavy 2 with L130R, S183K
light 1: B3 light with E127Q, T134R, R192K, T212A
light 2: B2 light with V132G, L134W, S175D, T179E
notes: also called Fab^3 construct; triple-Fab construct
On to B4, for which, in assay [4], the “maximum killing of BxPC3 cells” value was found to be 60%. For the same molecule, in assay [17], the “EC50 (read off the curve)” value was roughly 0.7 nM. The figures for the concentration giving a half-maximal response (EC50) in assay [20], in assay [7] and in assay [9] were 402 nM, 1.9 nM and 7.4 nM, respectively.

B5: v29048, trivalent and bispecific antibody construct [MSLN (2 scFv) x CD3 (1 Fab)] (bispecific antibody, human IgG1, lambda, L234A L235A)
heavy 1: not shown
heavy 2: EVQLLESGGGLVQPGGSVRISCAASGYSFTGYTMNWVRQAPGKGLEWIGLITPYSGASSYADSFKGRATLSVDNSKNTAYMQLNSLRAEDTAVYYCARGGYDGRGFDYWGQGTLVTVSSGGGGSGGGGSGGGGSDIQLTQSPSSLSASVGDRVTMTCSASSSVSYMHWYQQKPGKAPKLWIYDTSKLASGVPSRFSGSGSGTDYTLTISSVQPEDFATYYCQQWSKHPLTFGQGTKVEIKAAEPKSSDKTHTCPPCPAPEAAGGPSVFLFPPKPKDTLMISRTPEVTCVVVSVSHEDPEVKFNWYVDGVEVHNAKTKPREEQYNSTYRVVSVLTVLHQDWLNGKEYKCKVSNKALPAPIEKTISKAKGQPREPQVYVLPPSRDELTKNQVSLLCLVKGFYPSDIAVEWESNGQPENNYLTWPPVLDSDGSFFLYSKLTVDKSRWQQGNVFSCSVMHEALHNHYTQKSLSLSPG
light: B3 light
For the molecule B5, the “IC50 of T cell-dependent cytotoxicity on OVCAR-3 cells (pan T cells, E:T 5:1, 72 h)” value in [14] stood at 0.4 pM. Further, the EC50 came out at 5.5 nM in assay [21], 0.5 nM in assay [7] and 183 nM in assay [9]. Besides, the “Affinity to MSln” value in assay [18] is 9.8 nM.
